The record followed here is patent US20260265354A1 (JIANGSU MABWELL HEALTH PHARMACEUTICAL R AND D, published 2026).

For assay [1], the target named is T1, Nectin-like-4 (UniProt Q8NFZ8 21-324, limits assumed).
T1 construct: Bought recombinant protein; also called CADM4; IgSF4C
T1 sequence (looked up): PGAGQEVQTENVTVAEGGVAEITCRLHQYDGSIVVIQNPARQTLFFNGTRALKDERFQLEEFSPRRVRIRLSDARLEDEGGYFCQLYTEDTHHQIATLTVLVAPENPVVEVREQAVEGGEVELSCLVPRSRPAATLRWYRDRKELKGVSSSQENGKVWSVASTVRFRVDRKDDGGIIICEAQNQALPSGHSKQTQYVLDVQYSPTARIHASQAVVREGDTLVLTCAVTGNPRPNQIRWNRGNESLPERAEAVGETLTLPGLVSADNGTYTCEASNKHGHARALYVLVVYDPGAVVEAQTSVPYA
Put plainly: ELISA, coated antigen, antibody at 100 ng/ml. The protocol:
(§1) Coating: Nectin-1, Nectin-2, Nectin-3, Nectin-4, Nectin-like-1, Nectin-like-2, Nectin-like-3, Nectin-like-4, and Nectin-like-5 were diluted to 5 μg/ml in coating buffer (carbonate buffer, pH 9.6) respectively. A 96-well plate was coat with 100 μl per well and incubated overnight at 2-8° C.;
(§2) Sample loading: The plate was taken out, patted dry, and washed twice with 200 μl/well of PBST, then patted dry. The Nectin-4 antibodies prepared in Example 1 (antibody MM11, antibody R012, and antibody R036) were diluted with 1% BSA/PBST to concentrations of 10 μg/ml, 1 μg/ml, 100 ng/ml, and 10 ng/ml, respectively. 1% BSA/PBST solution for dilution was set as a blank control. 100 μl per well was added to the 96-well plate, and incubated at room temperature for 2 hours;
(§3) Reaction termination and plate reading: 100 μl/well of 1 mol/L H3PO4 was added to terminate the reaction and the plated was read. The absorbances of wells in the plate at 450 nm with 650 nm as reference wavelength were read and recorded as OD_{450 nm-650 nm}.

Assay [2] has as its target T2, recombinant human Nectin-4 protein (human, UniProt Q96NY8 32-349).
T2 construct: Prepared in-house (Jiangsu Mabwell) by transient transfection of CHO cells; also called PVRL-4; PRR-4
T2 sequence: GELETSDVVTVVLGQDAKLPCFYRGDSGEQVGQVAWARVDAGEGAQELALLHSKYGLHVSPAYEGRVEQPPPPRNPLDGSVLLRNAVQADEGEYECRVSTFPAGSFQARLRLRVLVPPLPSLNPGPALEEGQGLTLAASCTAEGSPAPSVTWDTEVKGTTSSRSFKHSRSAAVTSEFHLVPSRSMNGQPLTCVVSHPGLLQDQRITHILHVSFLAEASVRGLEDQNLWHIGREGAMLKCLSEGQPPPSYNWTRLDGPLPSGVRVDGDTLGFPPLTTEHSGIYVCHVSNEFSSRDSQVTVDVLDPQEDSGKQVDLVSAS
In words: ELISA, coated antigen, antibody at 100 ng/ml. As to the method: as §1, §2, §3

Assay [3] concerns the target T3, Nectin-like-1 (UniProt Q8N126 25-330, limits assumed).
T3 construct: Bought recombinant protein; also called CADM3; IgSF4B
T3 sequence (looked up): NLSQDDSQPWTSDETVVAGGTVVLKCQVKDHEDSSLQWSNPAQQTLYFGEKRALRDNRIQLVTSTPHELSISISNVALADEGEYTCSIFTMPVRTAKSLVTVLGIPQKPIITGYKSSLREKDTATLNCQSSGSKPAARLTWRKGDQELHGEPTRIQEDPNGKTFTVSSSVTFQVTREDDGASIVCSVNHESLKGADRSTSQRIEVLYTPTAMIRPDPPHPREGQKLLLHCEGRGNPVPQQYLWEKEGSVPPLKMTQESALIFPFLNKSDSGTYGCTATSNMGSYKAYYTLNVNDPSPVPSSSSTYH
In words: ELISA, coated antigen, antibody at 100 ng/ml. As to the method:
as §1, §2, §3
On the technique in general: ELISA stands for enzyme-linked immunosorbent assay.

Assay [4] addresses T4, Nectin-like-3 (UniProt Q8N3J6 25-367, limits assumed).
T4 construct: Bought recombinant protein; also called CADM2; IgSF4D
T4 sequence (looked up): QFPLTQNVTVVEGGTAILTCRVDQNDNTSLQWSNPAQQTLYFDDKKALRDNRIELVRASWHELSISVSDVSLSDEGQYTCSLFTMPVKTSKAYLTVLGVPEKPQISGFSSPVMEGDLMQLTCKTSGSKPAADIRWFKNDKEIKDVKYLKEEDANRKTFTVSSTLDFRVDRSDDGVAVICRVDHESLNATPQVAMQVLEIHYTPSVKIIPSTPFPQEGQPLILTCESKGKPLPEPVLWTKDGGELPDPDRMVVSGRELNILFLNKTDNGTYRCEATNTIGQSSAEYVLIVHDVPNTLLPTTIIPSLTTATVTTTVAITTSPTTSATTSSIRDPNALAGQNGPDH
In words: ELISA, coated antigen, antibody at 1000 ng/ml. The protocol: as §1, §2, §3

For assay [5], the target named is T1, Nectin-like-4. Put plainly: ELISA, coated antigen, antibody at 1000 ng/ml. As to the method:
as §1, §2, §3

The target of assay [6] is T2, recombinant human Nectin-4 protein. In words: ELISA, coated antigen, antibody at 1000 ng/ml. The protocol:
as §1, §2, §3

Assay [7] concerns the target T5, Nectin-1 (UniProt Q15223 31-334, limits assumed).
T5 construct: Bought recombinant protein; also called CD111; PVRL-1
T5 sequence (looked up): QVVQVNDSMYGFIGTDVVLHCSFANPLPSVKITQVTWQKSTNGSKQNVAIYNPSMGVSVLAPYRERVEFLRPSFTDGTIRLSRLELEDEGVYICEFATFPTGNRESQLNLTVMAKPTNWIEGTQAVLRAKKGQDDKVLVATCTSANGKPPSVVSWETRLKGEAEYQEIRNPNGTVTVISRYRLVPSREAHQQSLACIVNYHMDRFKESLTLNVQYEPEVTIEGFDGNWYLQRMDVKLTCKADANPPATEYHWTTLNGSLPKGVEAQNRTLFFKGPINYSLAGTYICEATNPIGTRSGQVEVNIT
In words: ELISA, coated antigen, antibody at 1000 ng/ml. The protocol:
as §1, §2, §3

Assay [8] concerns the target T6, Nectin-2 (UniProt Q92692 32-360, limits assumed).
T6 construct: Bought recombinant protein; also called CD112; PVRL-2
T6 sequence (looked up): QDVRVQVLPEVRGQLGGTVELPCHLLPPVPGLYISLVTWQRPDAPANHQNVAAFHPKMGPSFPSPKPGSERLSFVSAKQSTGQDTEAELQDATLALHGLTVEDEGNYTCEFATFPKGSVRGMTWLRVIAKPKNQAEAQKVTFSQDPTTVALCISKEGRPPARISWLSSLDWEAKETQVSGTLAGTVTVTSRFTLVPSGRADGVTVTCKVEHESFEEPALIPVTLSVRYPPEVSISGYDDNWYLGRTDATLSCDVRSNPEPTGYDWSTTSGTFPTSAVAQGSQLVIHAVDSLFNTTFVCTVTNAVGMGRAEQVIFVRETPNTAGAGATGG
In words: ELISA, coated antigen, antibody at 1000 ng/ml. The protocol: as §1, §2, §3

B1: Antibody MM11 (antibody, mouse IgG1, kappa, V domains shown)
VH: DVQLQESGPGLVKPSQSLSLTCSVTGYSITSNFYWNWIRQFPGNRLEWMGYISYDGSNNYNPSLKNRISISRDTSKNQFFLKLNSVTTEDTATYYCVRADYWGQGTLVTVSA
VL: DTVMTQTPLSLPVSLGDQASISCRSSQSLESSDGHAYLNWYLQKPGQSPQLLIYRVSNRFSGVLHRFSGSGSGTDFTLKISRVEAEDLGVYFCLQFTHVPFTFGSGTKLEIKR
notes: Mouse monoclonal antibody from hybridoma; also called Nectin-4 mouse monoclonal antibody MM11; mouse antibody MM11
As for B1, the OD detection value in assay [1] is 0.007 OD450 nm-650 nm; in assay [2], 1.64 OD450 nm-650 nm; in assay [3], 0.01 OD450 nm-650 nm; in assay [4] it was 0.029 OD450 nm-650 nm; in assay [5], 0.01 OD450 nm-650 nm; in assay [6], 2.05 OD450 nm-650 nm. For the same molecule, the figures for the OD detection value in assay [7] and in assay [8] were 0.007 OD450 nm-650 nm and 0.008 OD450 nm-650 nm, respectively.

B2: Antibody R012 (antibody, V domains shown)
VH: SKSVEESGGRLVTPGTPLTLTCTVSGFSLSTYAMSWVRQAPGKGLEYIGIISGRGTTYYASWLKGRFTISKTSTTVDLKITSPTTEDTATYFCARDAGISDVYTGYFNLWGQGTLVTVSS
VL: QPVLAQLPSASAALGASAKLTCTLSSAHRTYTIAWYQQQQGEAPRYLMMLKSDGSYTKGTGVPDRFSGSSSGADRYLIISSVQAADEADYYCGADDSGGYVFGGGTQLTVTG
notes: Rabbit monoclonal antibody from phage display; also called Nectin-4 rabbit monoclonal antibody R012; rabbit antibody R012
B2: the OD detection value in assay [1] was 0.008 OD450 nm-650 nm; in assay [2] it was 1.44 OD450 nm-650 nm; in assay [3], 0.008 OD450 nm-650 nm; in assay [4], 0.008 OD450 nm-650 nm; in assay [5], 0.007 OD450 nm-650 nm; in assay [6], 1.56 OD450 nm-650 nm. For the same molecule, the OD detection value in assay [7] and in assay [8] was 0.007 OD450 nm-650 nm each time.

B3: Antibody R036 (antibody, V domains shown)
VH: SQSVEESGGRLVTPGTPLTLTCTVSGFSLSSYAMSWVRQAPGKGLEYIGIIGGRGTTYYAIWAKGRFTISKTSTTVDLKITSPTTEDTATYFCARDAGTTYVGTTYVATGYFNLWGQGTLVTVSS
VL: QPVLTQPPSASAALGASAKLTCTLSSAHKTYTIAWYQQQQGEAPRYLMILKSDGSYTRGTGVPDRFSGSSSGADRYLIISSVQADDEADYYCGADDSGGYVFGGGTQLTVTG
notes: Rabbit monoclonal antibody from phage display; also called Nectin-4 rabbit monoclonal antibody R036; rabbit antibody R036
As for B3, the OD detection value in assay [1] worked out at 0.007 OD450 nm-650 nm; in assay [2], 1.48 OD450 nm-650 nm; in assay [3], 0.007 OD450 nm-650 nm; in assay [4], 0.007 OD450 nm-650 nm; in assay [5], 0.007 OD450 nm-650 nm; in assay [6], 1.64 OD450 nm-650 nm. Also, the OD detection value in assay [7] came to 0.006 OD450 nm-650 nm; in assay [8] it was 0.007 OD450 nm-650 nm.
